Columns and labels:
[1] = molecular target: T1, DR12-15 (human); assay: SPOTs peptide membrane, biotinylated 4713 antibody 1 µg/mL
T1 construct: HLA-DR12 overlapping peptide on SPOTs membrane
T1 peptide: KVTVYPSKTQPLQHH
Procedure: (§1) In order to reconfirm the results obtained using the peptide microarray, HLA-DR expressed by L428 cells was analyzed. […] Next, overlapping peptides were synthesized from the amino acid sequence of HLA-DR12 to prepare a custom SPOTs nitrocellulose membrane (Sigma-Aldrich Corp.). The membrane was rinsed with methanol for 5 minutes, then washed with a […] (TBS), and incubated at room temperature for 2 hours for blocking. […] The membrane was washed and then incubated for 2 hours in a solution of peroxidase (HRP)-labeled streptavidin (manufactured by Dako Japan Inc.) diluted 3000-fold with TBS. After washing, positive spots were detected using ECL Prime Western Blotting Detection kit (manufactured by GE Healthcare Japan Corp.) and a chemiluminescence detector (LAS-4000) (Table 3). As a result, the most strongly reacted peptide was DR12-26, followed by DR12-6 and DR12-13. […] Although an HLA-DR12-derived peptide to which the antibody described in WO2003/033538 binds was also arrayed as DR12-28, no binding was seen (Table 3).

[2] = molecular target: T2, DR12-7 (human); assay: as above
T2 construct: HLA-DR12 overlapping peptide on SPOTs membrane
T2 peptide: LLERHFHNQEELLRF
Procedure: as §1

[3] = molecular target: T3, DR12-13 (human); assay: as above
T3 construct: HLA-DR12 overlapping peptide on SPOTs membrane; also called DR-13
T3 peptide: RHNYGAVESFTVQRR
Procedure: as §1

[4] = molecular target: T4, DR12-2 (human); assay: as above
T4 construct: HLA-DR12 overlapping peptide on SPOTs membrane
T4 peptide: SSLAALTVTLMVLSS
Procedure: as §1

[5] = molecular target: T5, DR12-4 (human); assay: as above
T5 construct: HLA-DR12 overlapping peptide on SPOTs membrane
T5 peptide: FAGDTRPRFLEYSTG
Procedure: as §1

[6] = molecular target: T6, DR12-14 (human); assay: as above
T6 construct: HLA-DR12 overlapping peptide on SPOTs membrane
T6 peptide: FTVQRRVHPKVTVYP
Procedure: as §1

[7] = molecular target: T7, DR12-26 (human); assay: as above
T7 construct: HLA-DR12 peptide on SPOTs membrane; also called DR-26
T7 peptide: RNQKGHSGLQPRGFLS
Procedure: as §1

[8] = molecular target: T8, DR12-17 (human); assay: as above
T8 construct: HLA-DR12 overlapping peptide on SPOTs membrane
T8 peptide: VCSVSGFYPGSIEVR
Procedure: as §1

[9] = molecular target: T9, DR12-6 (human); assay: as above
T9 peptide: FFNGTERVRLLERHF
Procedure: as §1

[10] = molecular target: T10, DR12-3 (human); assay: as above
T10 construct: HLA-DR12 overlapping peptide on SPOTs membrane
T10 peptide: LMVLSSRLAFAGDTR
Procedure: as §1

[11] = molecular target: T11, DR12-25 (human); assay: as above
T11 construct: HLA-DR12 overlapping peptide on SPOTs membrane
T11 peptide: WRARSESAQSK
Procedure: as §1

[12] = molecular target: T12, peptide CRHNYGVGESFT (human); assay: peptide microarray of overlapping HLA-DR52 β chain peptides, 5 µg/mL 4713 mAb
T12 construct: Region of the HLA-DR52 β chain on the peptide microarray (overlapping 8- to 12-mers)
T12 peptide: CRHNYGVGESFT
Procedure: (§2) Overlapping peptides consisting of 8 to 12 amino acids shifted by one amino acid were chemically synthesized from their C termini on an array using the amino acid sequence of an HLA-DR52 β chain having the highest homology as a result of analysis using software Mascot (Shimadzu Techno-Research, Inc.) to prepare a peptide microarray (LC Sciences, LLC, Texas, US). First, the array was blocked by immersion overnight at 4° C. in a SuperBlock (pH 7.0) (Pierce Biotechnology Inc.) solution containing 0.05% Tween-20 to prevent nonspecific antibody binding. […] The array was washed with the washing solution for 20 minutes and then incubated at 25° C. for 1 hour in a 10 ng/mL Cy5-labeled goat anti-mouse IgG antibody solution. Cy5 was assayed at a wavelength of 635 nm using a microarray scanner (PMT 700 V). Since nonspecific binding to a peptide sequence having a C-terminal tryptophan residue was observed, this sequence was omitted and peptide sequences showing specific binding were then analyzed. […] A peptide sequence ([…]: SEQ ID NO: 2) of the HLA-DR β-chain to which an antibody described in WO2003/033538 bind is located 6 amino acid residues before the second N-terminal cysteine residue.

[13] = molecular target: T13, peptide sequence WNSQKDILEQKRG of the HLA-DR β-chain (human); assay: peptide microarray of overlapping HLA-DR52 β chain peptides
T13 construct: on the microarray as overlapping 8- to 12-mers
T13 peptide: WNSQKDILEQKRG
Procedure: as §2

[14] = molecular target: T14, TRAIL death receptor DR4 (UniProt O00220 24-468, limits assumed); assay: flow cytometry on BHK cells transfected with the DR4 receptor gene
T14 construct: whole, on cells; also called DR4 receptor
T14 sequence (looked up): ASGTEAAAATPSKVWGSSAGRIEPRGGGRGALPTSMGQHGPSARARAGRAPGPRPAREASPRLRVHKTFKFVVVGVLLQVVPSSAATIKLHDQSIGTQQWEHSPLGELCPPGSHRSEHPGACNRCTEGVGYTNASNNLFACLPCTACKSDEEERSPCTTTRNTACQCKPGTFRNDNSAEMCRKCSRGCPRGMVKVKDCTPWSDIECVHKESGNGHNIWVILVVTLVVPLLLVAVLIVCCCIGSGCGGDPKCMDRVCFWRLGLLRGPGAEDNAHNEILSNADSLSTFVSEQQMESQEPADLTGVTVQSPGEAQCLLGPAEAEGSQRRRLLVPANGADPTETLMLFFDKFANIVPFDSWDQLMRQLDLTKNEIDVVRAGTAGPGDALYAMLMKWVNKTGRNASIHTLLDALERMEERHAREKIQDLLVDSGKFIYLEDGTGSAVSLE
Procedure: (§3) Hamster-derived BHK cells transfected with the DR4 receptor or DR5 receptor gene were incubated with the antibody of the present invention for 1 hour and analyzed by flow cytometry in the same way as in Example 6.
(§4) In order to confirm whether the antibody of the present invention targets a TNF-related apoptosis inducing ligand (TRAIL) death receptor DR4 or DR5 known as a death receptor (cell death-inducing antigen), the antibody of the present invention was examined for its ability to stain hamster-derived BHK cells transfected with the DR4 receptor or DR5 receptor gene in the same way as above. As a result, the cells were stained by a known antibody against DR4 receptor or DR5 receptor (red line), but not stained by the antibody of the present invention (FIG. 9).

[15] = molecular target: T15, #38 (human); assay: SPOTs peptide membrane (HLA-DR epitope peptide library)
T15 peptide: WNSQKDLLERRRA

[16] = molecular target: T16, #34 (human); assay: as above
T16 peptide: WNSQKDLLEQRRA

[17] = molecular target: T17, #25 (human); assay: as above
T17 peptide: WNSQKDFLERRRA

[18] = molecular target: T18, TRAIL death receptor DR5 (UniProt O14763 56-440, limits assumed); assay: flow cytometry on BHK cells transfected with the DR5 receptor gene
T18 construct: whole, on cells; also called DR5 receptor
Procedure: as §3, §4

[19] = molecular target: T19, HLA-DR expressed by L428 cells (human); assay: flow cytometry on L428 cells, serially diluted antibody; reference LN3
T19 construct: whole, on cells; The assay is on L428 cells; also called HLA-DR12; HLA-DR on L428 cells
Procedure: The ability of each antibody to bind to L428 cells was analyzed by incubation with each of serially diluted antibody solutions using a flow cytometer. […] For cell death induction, the uptake of propidium iodide (PI) was analyzed using a flow cytometer.

binding result [1]: binds
binding result [2]: binds
binding result [3]: binds
binding result [4]: binds
binding result [5]: binds
binding result [6]: binds
binding result [7]: binds
binding result [8]: binds
binding result [9]: binds
binding result [10]: binds
binding result [11]: binds
binding result [12]: binds
binding result [13]: no binding (tested: 5 µg/mL)
binding result [15]: binds
binding result [16]: binds
binding result [17]: binds
fold lower concentration for binding than LN3 [19]: ~10 times
B1: 4713 mAb (antibody, mouse IgG1, V domains shown)
VH: DVQLQESGPGLVKPSQSLSLTCTVTGYSITNDYAWNWIRQFPGNKLEWMGYISYNDFTYYNPSLKSRISITRDTSKNQFFLQLNSVTAEDTATYYCVSERLRLVNHVMDYWGQGTSVIVSS
VL: QIVLTQSPPIMSASPGEKVTMTCSASSSVNYMHWHQQKSGTSPKKWIYDTSKLISGVPARFSGSGSGTSYSLTISSVEAEDAATYYCQQWSSYPFTFGSGTKLEIK
modifications: Used biotinylated on the SPOTs membranes; the site is not given.
notes: also called monoclonal antibody of the present invention
binding result [14]: no binding
binding result [18]: no binding

Reference: US20130236470A1 (JUNTENDO EDUCATINAL FOUNDATION, published 2013)
